B1: target 1 G17A,A18C (mixed)
RNA 1: CACCCGUGCAAAAAUGCAGGGGUCUAAAACUGAGCGGAUAACCUCUCUAUGG
RNA 2: GGGAAUGGAUCCACAUCUACGAAUUCGUACCAUCAAGAGGUUAUCCGCUCACCGAGAUCGGAAGAGCACACGU
B2: target 1 insU 3' of 15,insU 3' of 9 (mixed)
RNA 1: B1 RNA 1
RNA 2: GGGAAUGGAUCCACAUCUACGAAUUCGUACCAUAGAGUAGGUUAUUCCGCUCACCGAGAUCGGAAGAGCACACGU
B3: target 1 A1U,G15C (mixed)
RNA 1: B1 RNA 1
RNA 2: B1 RNA 2 with C34A, A35G, G37C, A51U
B4: target 1 insA 3' of 10,insU 3' of 5 (mixed)
RNA 1: B1 RNA 1
RNA 2: B2 RNA 2 with U38A, A39G, G41U, U43A, U46C, C48G, G49U
B5: target 1 A9C,C21U (mixed)
RNA 1: B1 RNA 1
RNA 2: B1 RNA 2 with C31U, C34A, A35G, A43C
B6: target 1 insG 3' of 18,insA 3' of 2 (mixed)
RNA 1: B1 RNA 1
RNA 2: B2 RNA 2 with A36G, G37A, U38G, U46C, C48G, G49C, C50U, U51C, C52A
B7: target 1 insC 3' of 19,insC 3' of 11 (mixed)
RNA 1: B1 RNA 1
RNA 2: B2 RNA 2 with A34C, G35A, A36G, G37A, U38G, U43C, A44U, U45A
B8: target 1 insA 3' of 10,insU 3' of 7 (mixed)
RNA 1: B1 RNA 1
RNA 2: B2 RNA 2 with U38A, A39G, G41U, U43A, U46C, C47U
B9: target 1 C4U,U10C (mixed)
RNA 1: B1 RNA 1
RNA 2: B1 RNA 2 with C34A, A35G, U42C, C48U
B10: target 1 insC 3' of 19,insU 3' of 9 (mixed)
RNA 1: B1 RNA 1
RNA 2: B2 RNA 2 with A34C, G35A, A36G, G37A, U38G
B11: target 1 G5U,A16C (mixed)
RNA 1: B1 RNA 1
RNA 2: B1 RNA 2 with C34A, A35G, A36C, G47U
B12: target 1 C7G,G13A (mixed)
RNA 1: B1 RNA 1
RNA 2: B1 RNA 2 with C34A, A35G, G39A, C45G
B13: target 1 G12A,A18C (mixed)
RNA 1: B1 RNA 1
RNA 2: B1 RNA 2 with A35G, G40A
B14: target 1 insU 3' of 22 (mixed)
RNA 1: B1 RNA 1
RNA 2: GGGAAUGGAUCCACAUCUACGAAUUCGUACUCAUAGAGAGGUUAUCCGCUCACCGAGAUCGGAAGAGCACACGU
B15: target 1 insC 3' of 22,insG 3' of 22 (mixed)
RNA 1: B1 RNA 1
RNA 2: B2 RNA 2 with A32G, U33C, G35U, U38A, A39G, G40A, U42G, A44U, U45A
B16: target 1 U11C,C21A (mixed)
RNA 1: B1 RNA 1
RNA 2: B1 RNA 2 with C31A, C34A, A35G, U41C
B17: target 1 insC 3' of 13,insA 3' of 11 (mixed)
RNA 1: B1 RNA 1
RNA 2: B2 RNA 2 with U38A, A39G, G40C, U43A, A44U, U45A
B18: target 1 insC 3' of 5,insU 3' of 2 (mixed)
RNA 1: B1 RNA 1
RNA 2: GGGAAUGGAUCCACAUCUACGAAUUCGUACCAUAGAGAGGUUAUCCGCCUCUACCGAGAUCGGAAGAGCACACGU
B19: target 1 insU 3' of 17,insU 3' of 6 (mixed)
RNA 1: B1 RNA 1
RNA 2: B2 RNA 2 with A36U, G37A, U38G, U46C, C48U
B20: target 1 C2A,C7G (mixed)
RNA 1: B1 RNA 1
RNA 2: B1 RNA 2 with C34A, A35G, C45G, C50A
B21: target 1 U10C,A16C (mixed)
RNA 1: B1 RNA 1
RNA 2: B1 RNA 2 with C34A, A35G, A36C, U42C
B22: target 1 insG 3' of 22,insA 3' of 6 (mixed)
RNA 1: B1 RNA 1
RNA 2: GGGAAUGGAUCCACAUCUACGAAUUCGUACGCAUAGAGAGGUUAUCCAGCUCACCGAGAUCGGAAGAGCACACGU
B23: target 1 insA 3' of 11,insA 3' of 6 (mixed)
RNA 1: B1 RNA 1
RNA 2: B2 RNA 2 with U38A, A39G, G41U, U42A, U46C, C48A
B24: target 1 insA 3' of 12,insA 3' of 3 (mixed)
RNA 1: B1 RNA 1
RNA 2: B18 RNA 2 with U41A, A43U, U44A, C45U, G47C, C48G, C51A, U52C
B25: target 1 U19A (mixed)
RNA 1: B1 RNA 1
RNA 2: B1 RNA 2 with U33A, C34A, A35G
B26: target 1 U8G,G12C (mixed)
RNA 1: B1 RNA 1
RNA 2: B1 RNA 2 with C34A, A35G, G40C, U44G
B27: target 1 insG 3' of 6 (mixed)
RNA 1: B1 RNA 1
RNA 2: GGGAAUGGAUCCACAUCUACGAAUUCGUACCAUAGAGAGGUUAUCCGGCUCACCGAGAUCGGAAGAGCACACGU
B28: target 1 C6G,C7G (mixed)
RNA 1: B1 RNA 1
RNA 2: B1 RNA 2 with C34A, A35G, C45G, C46G
B29: target 1 A9U,A18U (mixed)
RNA 1: B1 RNA 1
RNA 2: B1 RNA 2 with C34U, A35G, A43U
B30: target 1 insA 3' of 19,insG 3' of 4 (mixed)
RNA 1: B1 RNA 1
RNA 2: B22 RNA 2 with G31C, C32A, A33U, U34A, A48G, G49C, C50G
B31: target 1 insU 3' of 15,insU 3' of 12 (mixed)
RNA 1: B1 RNA 1
RNA 2: B2 RNA 2 with A44U, U45A

Residue numbers refer to the chain shown, from its start. Names may count otherwise.

The data set concerns the target T1, EsCas13d, nuclease-dead (Eubacterium siraeum, UniProt B0MS50, R295A;H300A;R849A;H854A).
T1 sequence: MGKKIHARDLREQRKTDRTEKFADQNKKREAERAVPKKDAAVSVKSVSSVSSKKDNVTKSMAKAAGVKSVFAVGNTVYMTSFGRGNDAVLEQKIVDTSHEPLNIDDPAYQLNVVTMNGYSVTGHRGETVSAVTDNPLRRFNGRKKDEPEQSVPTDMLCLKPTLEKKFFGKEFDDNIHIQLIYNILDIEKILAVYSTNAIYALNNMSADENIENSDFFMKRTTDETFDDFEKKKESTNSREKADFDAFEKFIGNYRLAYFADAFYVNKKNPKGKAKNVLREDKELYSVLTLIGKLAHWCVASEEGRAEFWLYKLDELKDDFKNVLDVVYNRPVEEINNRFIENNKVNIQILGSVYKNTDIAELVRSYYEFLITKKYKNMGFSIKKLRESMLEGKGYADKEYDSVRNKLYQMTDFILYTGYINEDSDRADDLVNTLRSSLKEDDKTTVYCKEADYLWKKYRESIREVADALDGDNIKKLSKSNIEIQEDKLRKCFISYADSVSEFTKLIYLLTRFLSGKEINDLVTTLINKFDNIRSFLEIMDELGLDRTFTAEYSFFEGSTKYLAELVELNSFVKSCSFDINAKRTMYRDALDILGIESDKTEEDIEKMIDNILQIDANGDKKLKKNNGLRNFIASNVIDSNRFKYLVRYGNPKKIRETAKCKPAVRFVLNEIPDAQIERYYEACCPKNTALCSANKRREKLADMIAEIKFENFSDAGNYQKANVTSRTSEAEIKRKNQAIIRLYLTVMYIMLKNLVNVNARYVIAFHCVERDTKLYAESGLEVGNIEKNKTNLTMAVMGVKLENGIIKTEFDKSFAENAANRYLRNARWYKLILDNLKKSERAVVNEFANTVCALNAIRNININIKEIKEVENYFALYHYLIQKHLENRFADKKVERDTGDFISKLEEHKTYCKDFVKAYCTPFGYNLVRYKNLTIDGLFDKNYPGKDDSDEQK
Description: crRNA (strand 1, pre-loaded); Mg2+; 40 mM Tris-HCl pH 7.5, 150 mM NaCl, 6 mM MgCl2, 1 mM DTT, 0.1% Tween-20, 0.2 mg/ml BSA; 25 C; 10 min per concentration, then washed. The following applies: tags: His6-TwinStrep-SUMO cleaved; N-terminal SNAP kept (SNAP-Surface 488); label: 3' end held by stalled T7 RNA polymerase.
Usually Kd stands for the concentration at which binding is half-saturated. A lower Kd goes with tighter binding. Take B1: binding was characterised by a dissociation constant (Kd) of 67 ± 10 nM.
The result for B2 reads 59 ± 16 nM.
The molecule B3 registered a dissociation constant (Kd) of 56 ± 24 nM.
B4 yielded a Kd of 14.2 ± 1.1 nM.
The result for B5 reads 9.9 ± 0.4 nM.
B6 returned a dissociation constant Kd of 73 ± 25 nM. Compared with the last molecule, the Kd is about 7.4-fold higher.
B7 showed a Kd of 48 ± 9 nM.
The molecule B8 displayed a dissociation constant (Kd) of 39.3 ± 2.6 nM.
Regarding B9, the Kd was found to be 52 ± 23 nM.
Consider B10, for which the dissociation constant (Kd) was about 80 nM.
B11 came in with a dissociation constant Kd of 60 ± 7 nM.
As for B12, the Kd was determined as 15.8 ± 1.5 nM.
B13 had a Kd of 51 ± 7 nM.
As for B14, the affinity, expressed as Kd, was 38 ± 5 nM.
The molecule B15 yielded a Kd of 12.6 ± 0.6 nM.
The result for B16 reads 51 ± 6 nM.
Molecule B17 had an equilibrium dissociation constant (Kd) of 19.1 ± 2.2 nM. This Kd is about 2.7-fold lower than that of the molecule before.
The result for B18 reads 15.2 ± 0.6 nM.
With B19, binding was put at a Kd of 29.7 ± 2.9 nM.
As to B20, binding was put at a Kd of 15.4 ± 0.9 nM.
Molecule B21 showed a dissociation constant Kd of 95 ± 8 nM.
As to B22, the affinity, expressed as Kd, was 54 ± 18 nM.
Regarding B23, the Kd is 13.2 ± 1 nM.
The same measure for B24: 20.5 ± 1.2 nM.
With B25, the Kd stood at 28.8 ± 1.5 nM.
For B26, the Kd was 16.4 ± 0.8 nM.
In turn, B27 showed a dissociation constant Kd of 11.4 ± 0.5 nM.
Consider B28, for which the Kd was 13.3 ± 0.7 nM.
The molecule B29 displayed a Kd of 44.9 ± 3.5 nM.
On to B30, for which the dissociation constant Kd turned out to be 15.1 ± 0.7 nM.
B31: binding was put at a Kd of 8.1 ± 0.4 nM.

The values above are taken from publication PMC10786891, “Massively parallel profiling of RNA-targeting CRISPR-Cas13d”.
